Measured values from the nanobody polyreactivity screen of Harvey et al. (2022).

Assay: yeast display, Sf9 membrane polyspecificity reagent, FACS + sequencing; frameworks hold sequencing errors
How it was run: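 Sorting gates, low and high (top ~1%), were placed on anti-HA fluorescence to track expression and on streptavidin fluorescence to track reagent binding. A clone's polyreactivity label is taken from the gate it came out of. The reagent was 10% biotinylated, detergent-solubilized Sf9 membrane, applied for 1 hour at 4 °C to galactose-induced yeast display cells.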

Sequence | polyreactivity (PSR sort gate)
QVQLVESGGGLLQAGGSLRLSCAASGFTFSYYAKGWYRQAPGKERELVAVISDRGGITYYADSVKGRFTISRDNAKNTVYLQMNSVKPEDTAVYYCAADLDSWYGYYYIVEYWGQGTQVTVSS | low polyreactivity
QVQLVESGGGLLQAGGSLRLSCAASGFTIKYYAMGWYRPAPGKERELVAAIRGSGAGTYYADSVKGRFTISRDNAKNTVYLQMNSLKPEDTAVYYCNKRWTYQWDDYWGQGTQVTVSS | high polyreactivity
QVQLVESGGGLLQAGGSLRLSCAASGIIFFKYAMGWYRQAPGKERELVAAINRSGGSTYYADSVKGRFTISRDNAKNSVSLQMNSLKPEDTAVYYCNARLTLRSYDYWGQGTQVTVSS | low polyreactivity
QVQLVESGGGLLQAGGSLRLSCAASGIIFRWYAMGWYSQAPGKERELVATITRSGGSTYYADSVKGRFTISRDNAKKTVYLLMKSLKPEDTAVFYCATGRYPSGRPTRNYDSVYWGHGTQVTVSS | high polyreactivity
QVQLVESGGGLLQAGGSLRLSCAASGITFLGYAMGWYRQATWKERELVAAISISGDTYYADSEKGRFTISRDNAKNTVYLQMNSLKPEDTAVYYCAAVQSYAGFEYGYWGQGTQVTVSS | high polyreactivity
QVQLVESGGGLLQAGGSLRLSCAASGITFRRNTMGWYREAPGKVRELVATISWRGGNTFYADSVKGRCTISRDNAKNTVYLQMNSRKPEDTAVYYCAAYSPYITRPGYAPYGYWGQATQVTVSS | high polyreactivity
QVQLVESGGGLLQAGGSLRLSCAASGITLSYYVMGWYRQAPGKERELVAAINQSGSRTYYADSVKGRFTISRDNPKNSVYLQMNSLKPEDTAVYYCAGVFSYQPTSGYGYWGQGTQVTVSS | high polyreactivity
QVQLVESGGGLLQAGGSLRLSCAASGLIFGYYAMGWYRQAPGKERELVGAITSSGTSTYYADSVKGRFTISRDNAKNTVYLQMNSLKPEDTAVYYCAAQYIGKKRFNYWGQGTQVTVSS | high polyreactivity
QVQLVESGGGLLQAGGSLRLSCAASGNIFTYYAMGWYRQAPGKERDLVAAIRWRSGSTYYADSVKGRFTISRDNAKNTVYLQMNSLKPEDTAVYYCADDGTPYEYDYWGQGTQVTVSS | low polyreactivity
QVQLVESGGGLLQAGGSLRLSCAASGRIFGSYAMGWYRPAPGKERELVAAINWRGGSTFYADSVKGRFTISRDNAKNTVYLQMNSLKPEDTAVYYCARRGYRQSGDYWGQGSQVTVSS | low polyreactivity
QVQLVESGGGLLQAGGSLRLSCAASGRIFRYYAMVWYIQAPVKERELVAGISWTGGTTYYADSVNGRFTISLDNAKNSVYLQMYSLKPEDSAVDYCIVRRSTLYDYWGQGTQVTVSS | high polyreactivity
QVQLVESGGGLLQAGGSLRLSCAASGRNFRLYPMGWYRQAPGTERDFLAAITFSGGRTYYADSVKGRFTISRDNAKNTVYLQMKSLKPEDTAVYYCAARGQTGYYSGVGYWGLGTQVTVSS | high polyreactivity
QVQLVESGGGLLQAGGSLRLSCAASGRNFRYYAMGWYRQAPRKERELVAAITRGGRTNYADSVKGRFTISRDNAKNTVYLQMNSLKPEDSAVYYCAADYTKYYRRYYYWGQGTQVTVSS | high polyreactivity
QVQLVESGGGLLQAGGSLRLSCAASGRTFGYYAMGWYRQAPGKERELVAAISKSGGRTYYADSVKGRFTISRDNAKNTVYLQMNSLKPEDTAVYYCAADGGAIVPYYENYYWGQGTQVTVSS | high polyreactivity
QVQLVESGGGLLQAGGSLRLSCAASGRTFYRYAMGWYRQAPGKERELVAAITWSGGSTYYADSVKGRFTTSRDNAKNTVYLQMNSLKPEDTAVYYCARRLYPYRPTAYDYWGQGTQVTVSS | low polyreactivity
QVQLVESGGGLLQAGGSLRLSCAASGSIFGGNAMGWYRQAPGKEREFVAAITVSDGSTYYADSVKGRFTISRDNAKNTVYLQMNSLKPEDTAVYYCAAGGFYYPHYDYWGQGSQVTVSS | low polyreactivity
QVQLVESGGGLLQAGGSLRLSCAASGSIFGYNAMGWYRQAPGKERELVAAISYSGGSTYYADSVKGRFPISRDNAKNTVYLQMNSLKPEDTAVYYCAKAGRYANLPYGYWGQGTQVTVSS | high polyreactivity
QVQLVESGGGLLQAGGSLRLSCAASGSIFSYYVMGWYRQAPGKERELVAAISSSGGSTYYADSVKGRFTISRDNEKNTVYLQMNSLKPEDTAVYYCAAQHYVRSSIPGFIYYYWGQGTQVTVSS | high polyreactivity
QVQLVESGGGLLQAGGSLRLSCAASGSIFTHNAMGWYRQAPGKERELVAAISSGGSTNYADSVKGRFTISRDNAKNTVYLHMNSLKPEDTAVYYCAATDQKLSLDYSSYEYWGQGTQVTVSS | low polyreactivity
QVQLVESGGGLLQAGGSLRLSCAASGSIFTSNAMGWYRQAPGKERELVAAITRGGNTNYADSVKGRFTISRDNAKNTVYLQMNSLKPEDTAVYYCATEGFVYSWLWEFEYWGQGTQVTVSS | low polyreactivity
QVQLVESGGGLLQAGGSLRLSCAASGSIFYGYAMGWYRQAPGKERELVAAITRGGGTYYADSVKGRFTNSRDNAKITVYLQMNSLKPEDTAVYYCALSFYRRYTPYDYWGQGTQLTVSS | high polyreactivity
QVQLVESGGGLLQAGGSLRLSCAASGSNFVAYAMGRYRQAPGKERELVAAITYSGGGTYYADSVKGRCTISRDNAKNTVYLLMNSLKPEDTALYYCNAVGGIYDFDYCGQGTQVTVSS | high polyreactivity

Sequence | polyreactivity (PSR sort gate)
QVQLVESGGGLLQAGGSLRLSCAASGSTFGFYALGWFRQAPGKERELVAAISSGGTSTYYADSVKGRFTISRDNAKTTVYLQMNSVIPEDTAVYYCNSDTFQYPSTYDYWGQGTQVTVSS | low polyreactivity
QVQLVESGGGLLQAGGSLRLSCAASGSTFSRYTMGWYRQAPGKERELVAAISYRGGSTYYADSVKGRFTISRDNAKNTVYLQMNSLKPEDTAVYYCAAEFRVEGSDYDYWGQGTQVTVSS | low polyreactivity
QVQLVESGGGLLQAGGSLRLSCAASGSTFYFYARGWYRQAPGKERELVAAITGSGGSTYYAVYVKGRFTISRDNSRNSVYLQMKSVKPEDTAVYYCAAGWWYYVHMDYWGQGTQVTVSS | high polyreactivity
QVQLVESGGGLLQAGGSLRLSCAASGYIFQYYAMGWYRQAPGKERELVAAITGGGSTKYADSVKGRFTISRDNAKNTVYLQMNSLKPEDTAVYYCAASLWYRISKYDYWGQGTQVTVSS | high polyreactivity
QVQLVESGGGLLQAGGSLRLSCASSGRTFKANAMVWYRQAPGKERELVAAISYSGGNTYYADSVKGRFTISRDNANNTVYLQMNSLKPEDTAVYYCARYYYLPVVDMDYWGQGTQVTVSS | high polyreactivity
QVQLVESGGGLLQAGGSLRLSCSATGSLFEGNGMGWYRQAPGKERELVASITRSGGSTYYADSVKGRFTISRDNAKNTVYLQINSLIPEDTAVYYCAAYPVRYYNQYDYWGLGTQVTVSS | low polyreactivity
QVQLVESGGGLLQAGGSLRLSFAASGRIYWNTMGWYRQAPGKERELVASISTGGGRTYYADSVKGRFTISRDNAKNTVYLQMNSLKPEDTAVYYCNADFISTRPPKATDEDYWGQGTQVTVSS | high polyreactivity
QVQLVESGGGLLQAGGSLRLSSAASGRIFYGNTMGWYRQAPGKERELVAAITWRGGSTYYADSVKGRFTISRDNAKNTVYLQMNSLKPEDTAVYYCAAVSYRGRGYWGQGTQVTVSS | high polyreactivity
QVQLVESGGGLLQAGGSLRLTCAASGFTFSLNTMGWYRQAPAKEREFVAAINSGDSTYADSVKGRYTISRDNAKNTVYLQMNSLKPEDTAVYYCNADPDWWYPYNYWGQGTQVTVSS | low polyreactivity
QVQLVESGGGLLQAGGSLRLTCAASGRIFGRYAMGWYRQAPGKERELVAAISYSGGSTRYADSVKGRFTISRDNSKNTVYLQMNSLKPEDTAVYYCAAARRFSTHEYWGQGTQVTVSS | high polyreactivity
QVQLVESGGGLVEAGGSLRLSCAASGFIFSSYVMGWYRQAPGKERELVAAITSGNSTYYADSVKGRFTISRDNAKTTVYLQMNSLKPEDTAVSYCTADSYHTYYYWYDYWGQGTQVTVSS | low polyreactivity
QVQLVESGGGLVEAGGSLRLSCAASGFTFHYYTMGWYRQAPVKERELVASINYSGGRTYYADSVKGRFTISRDIAMNTVYLQMNSLKPEDTAVYYCNARYKSTYYYWGQGTQVTVSS | high polyreactivity
QVQLVESGGGLVEAGGSLRLSCAASGRIFLSYAMGWYRQAPGKERELVATITDRGGRTYYADSVKGRFTISRDNAKNTVYLQMNSLKAEDTAVDYCAAGLVYRGYRRDYWGQGTQVTVTS | low polyreactivity
QVQLVESGGGLVEAGGSLRLSCAAYGRTFDYYDMGWYRPAPGKERELVAGITVSSGGTNYADSVKGRFTISRDNAKNTVYLQMNSLNPEDTAVYYCADANYDFYAFDSTYRYNYWGQGTQVTVSS | low polyreactivity
QVQLVESGGGLVEAGGSLRLSGAASGRSFGIYAMGWYRQAPGKERELVAAITWSGDSTYYADSVKGRFTISRDNAKKTVYLQMNILKPEDTAVYYCAADDVGVTSVRYDYWGQGTLVTVSS | low polyreactivity
QVQLVESGGGLVEAGGSLRLTCAAYGSIFSAYAMGWYRAAPGKERELVAAITRGTSTNYADSVKGRFTISRDNAKNTVYLQMNSLKPEDTAVYYCAVGYNSKLAVGMYYWGLGTQVTVSS | low polyreactivity
QVQLVESGGGLVEAGVSLRISCAASGRIFAYNTMGWYRQAPGKERELVAAISWRGGSTYYADSVKGRFTISRDNEKNSVHLQRNSLKPEDTAVYYCAVLSSSLTRFDYWGQGSQVTVSS | high polyreactivity
QVQLVESGGGLVEEGGSLRLSCAASGSIFSANALGWYRQAPGKERELVACITGDGSTNYADSVKGRFTISRDNAKNTVYLQMNSLKPEDTAVYYCAADIGSWYDYWGQGTQVTVSS | low polyreactivity
QVQLVESGGGLVHAAGSLRLSCAASGRTFRYNTMGWYRQASGKESELVARITRSGGSTYYADSVKGRFTISRDNAKNTVYLQMNSLKPEDTAVYYCAAVPILVYRWFQYYTGDYDYWGQGTQVTVSS | low polyreactivity
QVQLVESGGGLVHAGCSLRLSCSASGRISGYAMGWYRQAPGKERELVAAISKSAARTYYADSVKGRFTISRDNAKNTVYLQMNSLKAEDTAVYYCAADKPYRYDYWGQGTQVTVSS | high polyreactivity
QVQLVESGGGLVHAGGILSLSSAASGFTIGYYSMGWYRQAPGKERELVAAINWSGGRTYYGDSVKGRFTISRDIAKNTVYFQMTSLKPEDTAVYYCAADPNKGRQMYYWGQGSQVTVSS | high polyreactivity
